Residue numbers refer to the chain shown, from its start. Values joined by “and” are separate entries in the source; they are usually repeats but may differ in a detail not shown here. Equal entries are not always repeated.
How the values were obtained:
Conditions in all cases: both partners purified
[1] = target: T1, ADO-D206E, biotinylated (pQE80L-Navi-ADO) (human, UniProt Q96SZ5 1-270, D206E, biotin on the Avi tag); experiment: SPR; single-cycle kinetics (SCK), 1:1 binding model; biotinylated ADO or variant immobilised on a Biotin CAP chip, peptide injected at 25.6, 64, 160, 400, 1000 nM; 4 °C; 20 mM HEPES pH 7.5, 500 mM NaCl, 10 mM DTT, 0.1% (v/v) tween-20; 50 μL/minute
T1 construct: Tag as in Dm1; source: E. coli Rosetta2(DE3), purified (Ni-NTA, SEC); not shown: Avi tag, N-terminal, kept; His6, N-terminal, kept
T1 sequence (looked up): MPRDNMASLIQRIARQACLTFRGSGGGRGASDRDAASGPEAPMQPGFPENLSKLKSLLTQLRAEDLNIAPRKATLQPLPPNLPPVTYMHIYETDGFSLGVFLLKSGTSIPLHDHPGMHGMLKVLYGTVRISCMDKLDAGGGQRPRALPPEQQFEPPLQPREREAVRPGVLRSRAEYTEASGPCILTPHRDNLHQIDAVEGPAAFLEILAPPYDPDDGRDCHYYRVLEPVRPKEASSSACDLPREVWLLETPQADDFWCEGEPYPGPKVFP

[2] = target: T2, ADO-F256A, biotinylated (pQE80L-Navi-ADO) (human, UniProt Q96SZ5 1-270, F256A, biotin on the Avi tag); experiment: as above
T2 construct: Tag as in Dm1; source: E. coli Rosetta2(DE3), purified (Ni-NTA, SEC); not shown: Avi tag, N-terminal, kept; His6, N-terminal, kept
T2 sequence (looked up): T1 sequence (looked up) with E206D, F256A

[3] = target: T1, ADO-D206E, biotinylated …; experiment: SPR; multi-cycle, equilibrium steady state affinity 1:1 binding model; biotinylated ADO or variant immobilised on a Biotin CAP chip (~2500-3000 RU), peptide injected; 4 °C; 20 mM HEPES pH 7.5, 500 mM NaCl, 10 mM DTT, 0.1% (v/v) tween-20; 50 μL/minute
Procedure, shortened: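 Biotinylated full-length human ADO (wild type or engineered forms) was made in E. coli with a His tag, then purified by nickel affinity and gel filtration. It was captured on a Biotin CAP chip at about 2500–3000 RU in a Biacore T200, and peptides were flowed over it. The run was at 4 °C in HEPES pH 7.5 buffer with 500 mM NaCl, DTT and tween-20, at 50 μL/minute. Kd came from a 1:1 steady-state fit of multi-cycle equilibrium responses.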

[4] = target: T3, ADO-Y222A, N-terminally His-tagged and biotinylated (human, UniProt Q96SZ5 1-270, Y222A, biotin (biotinylated during expression)); experiment: SPR; biotinylated ADO or ADO mutant immobilised on a Biotin CAP chip (~2500-3000 RU), substrate peptide injected; Biacore T200, 4 °C; 20 mM HEPES pH 7.5, 500 mM NaCl, 10 mM DTT, 0.1% tween-20; 50 µL/minute; multi-cycle or single-cycle mode not given; each cell is one of three independent measurements
T3 construct: 2-aminoethanethiol dioxygenase (ADO), human, UniProt Q96SZ5, full length, site-directed mutant; source: E. coli Rosetta2(DE3), purified (Ni-NTA, SEC); not shown: biotinylation tag (from the vector pQE80L-Navi), N-terminal, kept
T3 sequence (looked up): T1 sequence (looked up) with E206D, Y222A

[5] = target: T4, ADO-Y212F, N-terminally His-tagged and biotinylated (human, UniProt Q96SZ5 1-270, Y212F, biotin (biotinylated during expression)); experiment: as above
T4 construct: 2-aminoethanethiol dioxygenase (ADO), human, UniProt Q96SZ5, full length, site-directed mutant; source: E. coli Rosetta2(DE3), purified (Ni-NTA, SEC); not shown: biotinylation tag (from the vector pQE80L-Navi), N-terminal, kept
T4 sequence (looked up): T1 sequence (looked up) with E206D, Y212F

[6] = target: T5, ADO-D206E, N-terminally His-tagged and biotinylated (human, UniProt Q96SZ5 1-270, D206E, biotin (biotinylated during expression)); experiment: as above
T5 construct: 2-aminoethanethiol dioxygenase (ADO), human, UniProt Q96SZ5, full length, site-directed mutant; source: E. coli Rosetta2(DE3), purified (Ni-NTA, SEC); not shown: biotinylation tag (from the vector pQE80L-Navi), N-terminal, kept
T5 sequence (looked up): T1 sequence (looked up)

B1: RGS5_(2-15), synthetic peptide corresponding to the methionine excised N-terminus of RGS5, residues 2 to 15 (peptide, UniProt O15539 2-15, looked up)
peptide: CKGLAALPHSCLER
notes: Regulator of G-protein signalling 5 (RGS5), residues 2 to 15, N-terminal Cys; also called RGS5 peptide; source: synthetic peptide
[1]
  Kd: 1100 nM
[2]
  Kd: 730 nM

B2: IL32_(2-15), synthetic peptide corresponding to the methionine excised N-terminus of IL32, residues 2-15 (peptide, UniProt P24001 2-15, looked up)
peptide: CFPKVLSDDMKKLK
notes: Interleukin 32 (IL32), residues 2-15, N-terminal Cys; also called IL32 peptide; source: synthetic peptide
[3]
  Kd: 1300 nM

B3: IL32(2-15), synthetic peptide corresponding to the methionine excised N-terminus of IL32, residues 2-15 (peptide, UniProt P24001 2-15, looked up)
peptide: CFPKVLSDDMKKLK
notes: interleukin 32 (IL32), residues 2-15 (N-terminal Cys exposed); also called 14-mer IL32; source: synthetic peptide
[4]
  Kd: 921 nM and 1040 nM and 1100 nM
[5]
  Kd: 8760 nM and 9120 nM and 9820 nM
[6]
  Kd: 1210 nM and 1270 nM and 1440 nM
